Assay results taken from paper doi:10.1101/2021.07.30.454553 (bioRxiv, 2021).
Like-named read-outs stand apart in the source and are kept apart here. Blank lines part the entries; values can stand above or below the binder they belong to.

Legend:
[1] = molecular target: T1, full-length human kinesin-1 heavy chain (KIF5B) (human, UniProt P33176 1-963, LD555, LD655 or Alexa488 label (imaging assays)); assay: single-molecule colocalisation on microtubules
T1 sequence (looked up): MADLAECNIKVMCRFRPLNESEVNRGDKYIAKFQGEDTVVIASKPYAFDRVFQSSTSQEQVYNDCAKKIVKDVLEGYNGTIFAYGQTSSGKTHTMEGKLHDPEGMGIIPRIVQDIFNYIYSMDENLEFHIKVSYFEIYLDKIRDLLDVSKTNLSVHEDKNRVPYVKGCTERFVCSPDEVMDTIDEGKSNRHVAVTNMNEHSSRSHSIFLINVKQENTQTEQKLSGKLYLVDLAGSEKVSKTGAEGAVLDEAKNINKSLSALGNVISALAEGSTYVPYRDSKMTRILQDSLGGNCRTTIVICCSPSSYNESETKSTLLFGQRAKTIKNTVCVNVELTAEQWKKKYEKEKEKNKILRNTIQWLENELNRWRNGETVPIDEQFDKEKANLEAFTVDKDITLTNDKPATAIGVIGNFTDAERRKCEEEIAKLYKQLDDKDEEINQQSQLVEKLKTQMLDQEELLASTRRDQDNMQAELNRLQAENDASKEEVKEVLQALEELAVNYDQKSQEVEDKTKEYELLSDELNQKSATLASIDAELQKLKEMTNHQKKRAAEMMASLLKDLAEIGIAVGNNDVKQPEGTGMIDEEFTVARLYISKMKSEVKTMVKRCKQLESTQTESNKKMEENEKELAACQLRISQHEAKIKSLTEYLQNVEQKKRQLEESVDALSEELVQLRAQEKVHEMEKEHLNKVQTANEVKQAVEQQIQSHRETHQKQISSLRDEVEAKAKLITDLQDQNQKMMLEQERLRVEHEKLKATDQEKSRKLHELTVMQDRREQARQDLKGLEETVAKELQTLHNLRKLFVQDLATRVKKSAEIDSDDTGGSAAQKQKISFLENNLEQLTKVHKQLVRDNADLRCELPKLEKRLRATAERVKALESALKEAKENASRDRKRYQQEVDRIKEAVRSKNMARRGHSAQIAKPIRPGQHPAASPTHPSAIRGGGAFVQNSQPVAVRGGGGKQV

[2] = molecular target: T1, full-length human kinesin-1 heavy chain …; assay: cell-based or functional assay
KIF5B^Δ1-336 = molecular target: T2, KIF5B^Δ1-336 (human, UniProt P33176 337-963); assay: single-molecule colocalisation on microtubules
T2 sequence (looked up): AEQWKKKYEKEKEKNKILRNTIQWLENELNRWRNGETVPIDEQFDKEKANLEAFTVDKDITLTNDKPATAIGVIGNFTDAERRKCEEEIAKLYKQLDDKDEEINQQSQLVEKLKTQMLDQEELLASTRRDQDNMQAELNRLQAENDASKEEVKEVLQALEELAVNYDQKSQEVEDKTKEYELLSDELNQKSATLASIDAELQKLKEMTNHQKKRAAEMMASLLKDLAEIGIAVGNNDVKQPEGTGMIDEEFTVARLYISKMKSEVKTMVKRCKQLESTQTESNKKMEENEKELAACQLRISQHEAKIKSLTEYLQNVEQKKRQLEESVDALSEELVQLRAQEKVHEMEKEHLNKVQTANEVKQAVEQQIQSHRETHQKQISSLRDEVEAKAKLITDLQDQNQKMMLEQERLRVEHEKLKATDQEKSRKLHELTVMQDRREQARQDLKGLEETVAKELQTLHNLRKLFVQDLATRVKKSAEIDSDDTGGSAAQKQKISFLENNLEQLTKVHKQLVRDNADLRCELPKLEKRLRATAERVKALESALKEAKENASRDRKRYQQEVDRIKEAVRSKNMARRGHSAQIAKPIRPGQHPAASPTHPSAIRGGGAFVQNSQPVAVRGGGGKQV

[3] = molecular target: T1, full-length human kinesin-1 heavy chain …; assay: single-molecule colocalisation on microtubules; remark: listed apart in the source

B2: TRAK2^1-360 (domain or fragment, human, UniProt O60296 1-360, looked up)
chain: MSQSQNAIFTSPTGEENLMNSNHRDSESITDVCSNEDLPEVELVSLLEEQLPQYRLKVDTLFLYENQDWTQSPHQRQHASDALSPVLAEETFRYMILGTDRVEQMTKTYNDIDMVTHLLAERDRDLELAARIGQALLKRNHVLSEQNESLEEQLGQAFDQVNQLQHELCKKDELLRIVSIASEESETDSSCSTPLRFNESFSLSQGLLQLEMLQEKLKELEEENMALRSKACHIKTETVTYEEKEQQLVSDCVKELRETNAQMSRMTEELSGKSDELIRYQEELSSLLSQIVDLQHKLKEHVIEKEELKLHLQASKDAQRQLTMELHELQDRNMECLGMLHESQEEIKELRSRSGPTAHL
modifications: LD555 or LD655 dye on the SNAP tag (imaging assays)
landing rate of kinesin/TRAK2 1-360 complexes, increase by 50 nM MAP7 [2]: 2 fold

B5: TRAK1^1-400 (domain or fragment, human, UniProt Q9UPV9 1-400, looked up)
chain: MALVFQFGQPVRAQPLPGLCHGKLIRTNACDVCNSTDLPEVEIISLLEEQLPHYKLRADTIYGYDHDDWLHTPLISPDANIDLTTEQIEETLKYFLLCAERVGQMTKTYNDIDAVTRLLEEKERDLELAARIGQSLLKKNKTLTERNELLEEQVEHIREEVSQLRHELSMKDELLQFYTSAAEESEPESVCSTPLKRNESSSSVQNYFHLDSLQKKLKDLEEENVVLRSEASQLKTETITYEEKEQQLVNDCVKELRDANVQIASISEELAKKTEDAARQQEEITHLLSQIVDLQKKAKACAVENEELVQHLGAAKDAQRQLTAELRELEDKYAECMEMLHEAQEELKNLRNKTMPNTTSRRYHSLGLFPMDSLAAEIEGTMRKELQLEEAESPDITHQK
modifications: LD555 or LD655 dye on the SNAP tag
binding result (KIF5B^Δ1-336): binds
binding result [3]: binds

Other lines, results leading:

binding result [1]: binds
B1: full-length TRAK1^1-953 (natural protein, human, UniProt Q9UPV9 1-953, looked up)
chain: MALVFQFGQPVRAQPLPGLCHGKLIRTNACDVCNSTDLPEVEIISLLEEQLPHYKLRADTIYGYDHDDWLHTPLISPDANIDLTTEQIEETLKYFLLCAERVGQMTKTYNDIDAVTRLLEEKERDLELAARIGQSLLKKNKTLTERNELLEEQVEHIREEVSQLRHELSMKDELLQFYTSAAEESEPESVCSTPLKRNESSSSVQNYFHLDSLQKKLKDLEEENVVLRSEASQLKTETITYEEKEQQLVNDCVKELRDANVQIASISEELAKKTEDAARQQEEITHLLSQIVDLQKKAKACAVENEELVQHLGAAKDAQRQLTAELRELEDKYAECMEMLHEAQEELKNLRNKTMPNTTSRRYHSLGLFPMDSLAAEIEGTMRKELQLEEAESPDITHQKRVFETVRNINQVVKQRSLTPSPMNIPGSNQSSAMNSLLSSCVSTPRSSFYGSDIGNVVLDNKTNSIILETEAADLGNDERSKKPGTPGTPGSHDLETALRRLSLRRENYLSERRFFEEEQERKLQELAEKGELRSGSLTPTESIMSLGTHSRFSEFTGFSGMSFSSRSYLPEKLQIVKPLEGSATLHHWQQLAQPHLGGILDPRPGVVTKGFRTLDVDLDEVYCLNDFEEDDTGDHISLPRLATSTPVQHPETSAHHPGKCMSQTNSTFTFTTCRILHPSDELTRVTPSLNSAPTPACGSTSHLKSTPVATPCTPRRLSLAESFTNTRESTTTMSTSLGLVWLLKERGISAAVYDPQSWDRAGRGSLLHSYTPKMAVIPSTPPNSPMQTPTSSPPSFEFKCTSPPYDNFLASKPASSILREVREKNVRSSESQTDVSVSNLNLVDKVRRFGVAKVVNSGRAHVPTLTEEQGPLLCGPPGPAPALVPRGLVPEGLPLRCPTVTSAIGGLQLNSGIRRNRSFPTMVGSSMQMKAPVTLTSGILMGAKLSKQTSLR
modifications: LD655 dye on the SNAP tag (imaging assays)

landing rate of kinesin on MTs with TRAK1 1-360 against kinesin alone [2]: 1.5 fold
landing rate of kinesin/TRAK1 1-360 complexes, increase by 50 nM MAP7 [2]: > 7 fold
B3: TRAK1^1-360 (domain or fragment, human, UniProt Q9UPV9 1-360, looked up)
chain: MALVFQFGQPVRAQPLPGLCHGKLIRTNACDVCNSTDLPEVEIISLLEEQLPHYKLRADTIYGYDHDDWLHTPLISPDANIDLTTEQIEETLKYFLLCAERVGQMTKTYNDIDAVTRLLEEKERDLELAARIGQSLLKKNKTLTERNELLEEQVEHIREEVSQLRHELSMKDELLQFYTSAAEESEPESVCSTPLKRNESSSSVQNYFHLDSLQKKLKDLEEENVVLRSEASQLKTETITYEEKEQQLVNDCVKELRDANVQIASISEELAKKTEDAARQQEEITHLLSQIVDLQKKAKACAVENEELVQHLGAAKDAQRQLTAELRELEDKYAECMEMLHEAQEELKNLRNKTMPNTTS
modifications: LD555 or LD655 dye on the SNAP tag (imaging assays)

binding result [1]: binds
B4: TRAK2^1-400 (domain or fragment, human, UniProt O60296 1-400, looked up)
chain: MSQSQNAIFTSPTGEENLMNSNHRDSESITDVCSNEDLPEVELVSLLEEQLPQYRLKVDTLFLYENQDWTQSPHQRQHASDALSPVLAEETFRYMILGTDRVEQMTKTYNDIDMVTHLLAERDRDLELAARIGQALLKRNHVLSEQNESLEEQLGQAFDQVNQLQHELCKKDELLRIVSIASEESETDSSCSTPLRFNESFSLSQGLLQLEMLQEKLKELEEENMALRSKACHIKTETVTYEEKEQQLVSDCVKELRETNAQMSRMTEELSGKSDELIRYQEELSSLLSQIVDLQHKLKEHVIEKEELKLHLQASKDAQRQLTMELHELQDRNMECLGMLHESQEEIKELRSRSGPTAHLYFSQSYGAFTGESLAAEIEGTMRKKLSLDEESSLFKQKAQ
modifications: LD555 or LD655 dye on the SNAP tag

binding result [1]: binds
B6: full-length TRAK2^1-914 (natural protein, human, UniProt O60296 1-914, looked up)
chain: MSQSQNAIFTSPTGEENLMNSNHRDSESITDVCSNEDLPEVELVSLLEEQLPQYRLKVDTLFLYENQDWTQSPHQRQHASDALSPVLAEETFRYMILGTDRVEQMTKTYNDIDMVTHLLAERDRDLELAARIGQALLKRNHVLSEQNESLEEQLGQAFDQVNQLQHELCKKDELLRIVSIASEESETDSSCSTPLRFNESFSLSQGLLQLEMLQEKLKELEEENMALRSKACHIKTETVTYEEKEQQLVSDCVKELRETNAQMSRMTEELSGKSDELIRYQEELSSLLSQIVDLQHKLKEHVIEKEELKLHLQASKDAQRQLTMELHELQDRNMECLGMLHESQEEIKELRSRSGPTAHLYFSQSYGAFTGESLAAEIEGTMRKKLSLDEESSLFKQKAQQKRVFDTVRIANDTRGRSISFPALLPIPGSNRSSVIMTAKPFESGLQQTEDKSLLNQGSSSEEVAGSSQKMGQPGPSGDSDLATALHRLSLRRQNYLSEKQFFAEEWQRKIQVLADQKEGVSGCVTPTESLASLCTTQSEITDLSSASCLRGFMPEKLQIVKPLEGSQTLYHWQQLAQPNLGTILDPRPGVITKGFTQLPGDAIYHISDLEEDEEEGITFQVQQPLEVEEKLSTSKPVTGIFLPPITSAGGPVTVATANPGKCLSCTNSTFTFTTCRILHPSDITQVTPSSGFPSLSCGSSGSSSSNTAVNSPALSYRLSIGESITNRRDSTTTFSSTMSLAKLLQERGISAKVYHSPISENPLQPLPKSLAIPSTPPNSPSHSPCPSPLPFEPRVHLSENFLASRPAETFLQEMYGLRPSRNPPDVGQLKMNLVDRLKRLGIARVVKNPGAQENGRCQEAEIGPQKPDSAVYLNSGSSLLGGLRRNQSLPVIMGSFAAPVCTSSPKMGVLKED
modifications: LD655 dye on the SNAP tag (imaging assays)
